{"source": "patent US9506909B2", "about": "“Homoarginine as a biomarker for the risk of mortality” (Synlab Medizinisches Versorgungszentrum Heidelberg GmbH, priority 2010, dated 2016)", "origin": "cited, not measured here", "molecules": {"B1": {"name": "NTproBNP: N-terminal pro peptide of proBNP, 76 amino acids, inactive counterpart of BNP (protein, UniProt P16860 27-102, looked up)", "NT-proBNP": "HPLGSPGSASDLETSGLQEQRNHLQGKLSELQVEQTSLEPLQESPRPTGVWKSREVATEGIRGHRKMVLYTLRAPR", "modifications": "NT-proBNP"}}, "key": {"[1]": {"details": "storage for 48 hours at room temperature or at 40 Celsius"}}, "data": [{"molecule": "BNP: active natriuretic hormone, 32 amino acids, cleaved from proBNP", "values": [{"measurement": "in-vivo half-life", "setting": "in vivo", "result": 0.333, "unit": "h"}, {"measurement": "concentration loss on storage", "setting": "[1]", "result": "at least 20%"}]}, {"molecule": "B1", "values": [{"measurement": "in-vivo half-life, longer than that of BNP", "setting": "printed as the difference to the half-life of BNP", "result": 2, "unit": "h"}]}]}
